Data reported in the supplement of paper PMC10065799, “High-throughput profiling of sequence recognition by tyrosine kinases and SH2 domains using bacterial peptide display” (eLife, 2023).

Target: Hck (UniProt P08631)
Experiment: phosphorylation enrichment, bacterial display (enrichment ratio); higher = better substrate or ligand; peptides without Tyr show the background
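Note: 11-residue human phosphosite peptides and single-mutation variants displayed on the E. coli surface, counted by deep sequencing, each peptide's frequency after selection divided by its frequency in the unselected input library; frequency after pTyr selection over input frequency; kinase dosed for 20-30% of maximal phosphorylation in three min.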

Chain of Hck (P08631 whole entry, looked up): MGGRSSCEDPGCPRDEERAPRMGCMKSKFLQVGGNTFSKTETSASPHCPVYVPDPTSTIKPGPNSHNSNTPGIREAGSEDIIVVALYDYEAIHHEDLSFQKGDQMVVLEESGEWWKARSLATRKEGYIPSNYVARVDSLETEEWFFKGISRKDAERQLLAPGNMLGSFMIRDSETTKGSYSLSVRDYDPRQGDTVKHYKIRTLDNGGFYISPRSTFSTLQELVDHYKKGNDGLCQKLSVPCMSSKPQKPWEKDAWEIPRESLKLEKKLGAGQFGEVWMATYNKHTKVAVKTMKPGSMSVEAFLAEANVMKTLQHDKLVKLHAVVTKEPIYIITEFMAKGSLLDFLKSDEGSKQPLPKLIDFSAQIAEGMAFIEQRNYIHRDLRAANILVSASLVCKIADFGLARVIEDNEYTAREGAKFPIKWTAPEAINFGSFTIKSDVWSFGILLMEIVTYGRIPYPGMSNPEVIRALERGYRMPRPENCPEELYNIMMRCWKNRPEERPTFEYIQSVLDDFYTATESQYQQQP

Sequence	phosphorylation enrichment
AKLKDYFIFNK [CCDC42_Y149_YF]	0.478
YTGDIYSSSNL [LZTR1_Y141_N143S]	7.13
VIEQRYNETWL [SLC2A4_Y56_S55R]	0.468
GIVEDYRPRFF [ACVRL1_Y421_P424R_YF]	0.427
SILAVYSKDIY [PANK2_Y400_N404I]	2.48
KCCCIYEKPRS [PPP1R11_Y64_A69S]	2.45
YEEDSYVKRSQ [RET_Y905]	0.49
SAPDSYIRIGN [SLC38A4_Y27_G29R]	0.47
LFSDHYSPSGR [TMPRSS12_Y23_YF]	0.455
CRAVKYLQMVG [AVPR2_Y117]	0.504
LAIERYVVVSK [RHO_Y136_C140S]	0.443
NFFEFYVDDPL [GCHFR_Y48_P53L_YF]	0.439
MFCAGYDTKQE [F10_Y407]	0.632
FSGQVYRQRRK [TH_Y230_D227G]	0.718
IGLHAYGDQFR [IDH1_Y135_R132L_YF]	0.473
MIHSAYALGGL [CPS1_Y590_R587H]	0.464
FGVVGYLAIMF [RNF175_Y155]	0.655
NVGGKYSFLKV [GRM3_Y478_YF]	0.446
DASAVYLRDFQ [PLCG2_Y242_H244R]	0.544
DFPIGYPSFLA [TBCK_Y153_YF]	0.481
KLSFSYGWALQ [ALDOB_Y302_R304W]	0.509
RIGRKYKRVRF [F8_Y442_K444R]	1.23

Test system: c-Src
Experiment: as above

Sequence	phosphorylation enrichment
AKLKDYFIFNK [CCDC42_Y149_YF]	0.658
YTGDIYSSSNL [LZTR1_Y141_N143S]	4.97
VIEQRYNETWL [SLC2A4_Y56_S55R]	0.402
GIVEDYRPRFF [ACVRL1_Y421_P424R_YF]	0.459
SILAVYSKDIY [PANK2_Y400_N404I]	2.84
KCCCIYEKPRS [PPP1R11_Y64_A69S]	3.04
YEEDSYVKRSQ [RET_Y905]	0.544
SAPDSYIRIGN [SLC38A4_Y27_G29R]	0.352
LFSDHYSPSGR [TMPRSS12_Y23_YF]	0.363
CRAVKYLQMVG [AVPR2_Y117]	0.401
LAIERYVVVSK [RHO_Y136_C140S]	0.396
NFFEFYVDDPL [GCHFR_Y48_P53L_YF]	0.489
MFCAGYDTKQE [F10_Y407]	0.584
FSGQVYRQRRK [TH_Y230_D227G]	1.13
IGLHAYGDQFR [IDH1_Y135_R132L_YF]	0.39
MIHSAYALGGL [CPS1_Y590_R587H]	0.489
FGVVGYLAIMF [RNF175_Y155]	0.443
NVGGKYSFLKV [GRM3_Y478_YF]	0.392
DASAVYLRDFQ [PLCG2_Y242_H244R]	0.693
DFPIGYPSFLA [TBCK_Y153_YF]	0.535
KLSFSYGWALQ [ALDOB_Y302_R304W]	0.585
RIGRKYKRVRF [F8_Y442_K444R]	3.73

Target: EPHB1 (UniProt P54762)
Experiment: as above

Chain of EPHB1 (P54762 whole entry, looked up): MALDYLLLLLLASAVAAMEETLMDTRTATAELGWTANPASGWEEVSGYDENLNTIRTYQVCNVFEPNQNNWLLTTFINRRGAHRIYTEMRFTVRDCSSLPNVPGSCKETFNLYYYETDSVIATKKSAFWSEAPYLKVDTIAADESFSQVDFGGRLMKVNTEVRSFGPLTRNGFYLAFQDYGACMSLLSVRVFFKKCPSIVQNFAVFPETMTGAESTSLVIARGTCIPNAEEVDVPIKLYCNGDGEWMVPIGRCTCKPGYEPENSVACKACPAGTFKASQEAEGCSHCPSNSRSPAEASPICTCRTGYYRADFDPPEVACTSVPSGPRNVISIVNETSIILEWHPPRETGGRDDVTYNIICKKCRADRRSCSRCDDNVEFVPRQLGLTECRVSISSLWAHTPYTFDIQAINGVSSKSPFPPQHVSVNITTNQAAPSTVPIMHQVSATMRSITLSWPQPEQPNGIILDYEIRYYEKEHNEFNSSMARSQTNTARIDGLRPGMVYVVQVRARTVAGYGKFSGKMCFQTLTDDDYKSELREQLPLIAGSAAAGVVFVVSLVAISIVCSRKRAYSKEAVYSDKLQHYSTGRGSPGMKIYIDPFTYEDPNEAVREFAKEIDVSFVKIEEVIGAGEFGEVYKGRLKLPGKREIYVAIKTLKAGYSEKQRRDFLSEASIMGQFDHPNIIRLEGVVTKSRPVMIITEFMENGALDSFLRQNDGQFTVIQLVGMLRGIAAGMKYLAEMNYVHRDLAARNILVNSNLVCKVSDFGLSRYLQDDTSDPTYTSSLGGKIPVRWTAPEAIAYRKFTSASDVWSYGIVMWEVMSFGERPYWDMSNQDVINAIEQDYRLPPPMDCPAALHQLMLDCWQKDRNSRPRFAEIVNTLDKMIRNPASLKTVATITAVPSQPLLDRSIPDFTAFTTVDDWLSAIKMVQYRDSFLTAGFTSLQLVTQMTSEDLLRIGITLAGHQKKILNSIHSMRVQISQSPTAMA

Sequence	phosphorylation enrichment
AKLKDYFIFNK [CCDC42_Y149_YF]	0.417
YTGDIYSSSNL [LZTR1_Y141_N143S]	1.27
VIEQRYNETWL [SLC2A4_Y56_S55R]	0.467
GIVEDYRPRFF [ACVRL1_Y421_P424R_YF]	0.616
SILAVYSKDIY [PANK2_Y400_N404I]	0.745
KCCCIYEKPRS [PPP1R11_Y64_A69S]	1.03
YEEDSYVKRSQ [RET_Y905]	0.626
SAPDSYIRIGN [SLC38A4_Y27_G29R]	0.359
LFSDHYSPSGR [TMPRSS12_Y23_YF]	0.545
CRAVKYLQMVG [AVPR2_Y117]	0.608
LAIERYVVVSK [RHO_Y136_C140S]	0.499
NFFEFYVDDPL [GCHFR_Y48_P53L_YF]	0.773
MFCAGYDTKQE [F10_Y407]	0.81
FSGQVYRQRRK [TH_Y230_D227G]	0.604
IGLHAYGDQFR [IDH1_Y135_R132L_YF]	0.413
MIHSAYALGGL [CPS1_Y590_R587H]	0.36
FGVVGYLAIMF [RNF175_Y155]	0.795
NVGGKYSFLKV [GRM3_Y478_YF]	0.472
DASAVYLRDFQ [PLCG2_Y242_H244R]	0.506
DFPIGYPSFLA [TBCK_Y153_YF]	0.477
KLSFSYGWALQ [ALDOB_Y302_R304W]	0.844
RIGRKYKRVRF [F8_Y442_K444R]	0.967

Target: MERTK (UniProt Q12866)
Experiment: as above

Chain of MERTK (Q12866 whole entry, looked up): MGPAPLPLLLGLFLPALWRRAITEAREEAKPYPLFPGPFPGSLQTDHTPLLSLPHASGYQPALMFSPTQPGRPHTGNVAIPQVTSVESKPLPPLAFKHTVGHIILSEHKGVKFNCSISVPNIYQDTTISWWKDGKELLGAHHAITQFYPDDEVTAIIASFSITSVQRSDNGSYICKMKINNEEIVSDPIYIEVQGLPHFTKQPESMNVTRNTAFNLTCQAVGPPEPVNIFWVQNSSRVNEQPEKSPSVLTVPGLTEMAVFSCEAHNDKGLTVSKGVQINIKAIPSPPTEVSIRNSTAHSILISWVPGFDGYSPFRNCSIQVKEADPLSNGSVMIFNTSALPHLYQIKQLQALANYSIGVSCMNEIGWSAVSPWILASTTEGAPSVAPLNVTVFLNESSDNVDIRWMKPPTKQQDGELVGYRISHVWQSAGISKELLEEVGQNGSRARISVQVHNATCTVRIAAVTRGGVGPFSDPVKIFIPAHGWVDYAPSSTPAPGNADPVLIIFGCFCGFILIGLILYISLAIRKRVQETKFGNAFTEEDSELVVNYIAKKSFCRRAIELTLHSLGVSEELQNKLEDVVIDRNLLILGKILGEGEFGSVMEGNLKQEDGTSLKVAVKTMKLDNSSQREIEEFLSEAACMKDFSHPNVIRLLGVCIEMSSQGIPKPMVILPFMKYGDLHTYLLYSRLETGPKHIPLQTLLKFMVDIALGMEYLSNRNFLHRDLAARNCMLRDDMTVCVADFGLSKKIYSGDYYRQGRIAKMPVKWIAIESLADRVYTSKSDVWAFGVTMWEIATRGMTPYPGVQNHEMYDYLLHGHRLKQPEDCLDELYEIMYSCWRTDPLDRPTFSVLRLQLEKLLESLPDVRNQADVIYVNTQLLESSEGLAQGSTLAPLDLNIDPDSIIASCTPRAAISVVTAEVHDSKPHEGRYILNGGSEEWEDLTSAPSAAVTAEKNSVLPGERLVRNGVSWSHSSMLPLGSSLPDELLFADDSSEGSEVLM

Sequence	phosphorylation enrichment
AKLKDYFIFNK [CCDC42_Y149_YF]	0.56
YTGDIYSSSNL [LZTR1_Y141_N143S]	3.2
VIEQRYNETWL [SLC2A4_Y56_S55R]	0.381
GIVEDYRPRFF [ACVRL1_Y421_P424R_YF]	0.626
SILAVYSKDIY [PANK2_Y400_N404I]	2.91
KCCCIYEKPRS [PPP1R11_Y64_A69S]	1.17
YEEDSYVKRSQ [RET_Y905]	0.51
SAPDSYIRIGN [SLC38A4_Y27_G29R]	0.488
LFSDHYSPSGR [TMPRSS12_Y23_YF]	0.382
CRAVKYLQMVG [AVPR2_Y117]	0.379
LAIERYVVVSK [RHO_Y136_C140S]	0.515
NFFEFYVDDPL [GCHFR_Y48_P53L_YF]	0.413
MFCAGYDTKQE [F10_Y407]	0.48
FSGQVYRQRRK [TH_Y230_D227G]	1
IGLHAYGDQFR [IDH1_Y135_R132L_YF]	0.4
MIHSAYALGGL [CPS1_Y590_R587H]	0.409
FGVVGYLAIMF [RNF175_Y155]	0.532
NVGGKYSFLKV [GRM3_Y478_YF]	0.456
DASAVYLRDFQ [PLCG2_Y242_H244R]	0.675
DFPIGYPSFLA [TBCK_Y153_YF]	0.37
KLSFSYGWALQ [ALDOB_Y302_R304W]	0.559
RIGRKYKRVRF [F8_Y442_K444R]	2.74
